Like-named read-outs stand apart in the source and are kept apart here.

In assay [1] the target is human Tim3 on HEK293F cells (human) (UniProt Q8TDQ0). Kind of assay: flow cytometry, transfected HEK293F cells, 100 nM antibody [Cont.]. In general terms: A flow cytometer gives signals particle by particle.
In assay [2] the target is human B7H3 on HEK293F cells (human) (UniProt Q5ZPR3). The description is as above.
Assay [3] addresses CTLA4 on activated mouse T cells (mouse) (UniProt P09793). The assay can be described thus: flow cytometry, activated mouse CD4+ T cells, APC-labelled antibody; lower right quadrant 0.043%.
The target in assay [4] is full-length human CTLA4 expressed on cells (human) (UniProt P16410). Kind of assay: flow cytometry, activated human CD4+ T cells, APC-labelled antibody; lower right quadrant 0%.
The target is the same in assay [5]. Kind of assay: flow cytometry, transfected HEK293F cells, 100 nM antibody.
The target in assay [6] is human LAG3 on HEK293F cells (human) (UniProt P18627). Described as above.
Assay [7] addresses human PD1 on HEK293F cells (human) (UniProt Q15116). The assay is described as above.
For assay [8], the target named is full-length human CTLA4 expressed on cells (human) (UniProt P16410). The assay is described as above. This is another data set of the same source.
The target in assay [9] is human Tim3 on HEK293F cells (human) (UniProt Q8TDQ0). Described as above.
Assay [10] addresses human PD-L1 on HEK293F cells (human) (UniProt Q9NZQ7). Described as above.
Assay [11] addresses human LAG3 on HEK293F cells (human) (UniProt P18627). Described as above. This is another data set of the same source.
The target in assay [12] is full-length mouse CTLA4 expressed on HEK293F cells (mouse) (UniProt P09793). The assay can be described thus: flow cytometry, transfected HEK293F cells, antibody concentration not printed [Cont.].
Assay [13] addresses CTLA4 on activated monkey T cells. The assay can be described thus: flow cytometry, activated monkey CD4+ T cells, APC-labelled antibody; lower right quadrant […].

Sequence of human Tim3 on HEK293F cells (human) (Q8TDQ0 22-301): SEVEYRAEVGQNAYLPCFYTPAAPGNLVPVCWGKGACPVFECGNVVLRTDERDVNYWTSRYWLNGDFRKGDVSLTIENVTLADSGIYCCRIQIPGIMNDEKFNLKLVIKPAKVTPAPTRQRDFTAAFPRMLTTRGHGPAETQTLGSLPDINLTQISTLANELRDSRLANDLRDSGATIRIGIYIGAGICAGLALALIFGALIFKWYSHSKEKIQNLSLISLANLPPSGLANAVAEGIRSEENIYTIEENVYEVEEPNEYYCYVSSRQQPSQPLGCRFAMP
Sequence of human LAG3 on HEK293F cells (human) (P18627 23-525): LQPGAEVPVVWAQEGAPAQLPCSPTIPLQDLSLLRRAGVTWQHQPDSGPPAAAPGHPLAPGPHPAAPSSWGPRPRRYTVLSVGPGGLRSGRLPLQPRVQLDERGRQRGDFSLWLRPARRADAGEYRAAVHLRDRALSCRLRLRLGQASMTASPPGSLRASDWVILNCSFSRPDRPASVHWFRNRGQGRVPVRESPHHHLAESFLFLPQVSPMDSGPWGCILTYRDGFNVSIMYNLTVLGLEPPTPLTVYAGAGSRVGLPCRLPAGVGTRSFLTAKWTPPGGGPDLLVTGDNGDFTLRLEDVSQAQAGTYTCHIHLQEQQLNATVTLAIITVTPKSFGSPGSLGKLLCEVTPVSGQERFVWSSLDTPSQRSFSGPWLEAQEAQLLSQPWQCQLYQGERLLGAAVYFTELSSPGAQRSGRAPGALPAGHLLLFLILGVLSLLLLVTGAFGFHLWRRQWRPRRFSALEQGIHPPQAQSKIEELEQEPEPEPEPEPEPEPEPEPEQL
Sequence of full-length human CTLA4 expressed on cells (human) (P16410 36-223): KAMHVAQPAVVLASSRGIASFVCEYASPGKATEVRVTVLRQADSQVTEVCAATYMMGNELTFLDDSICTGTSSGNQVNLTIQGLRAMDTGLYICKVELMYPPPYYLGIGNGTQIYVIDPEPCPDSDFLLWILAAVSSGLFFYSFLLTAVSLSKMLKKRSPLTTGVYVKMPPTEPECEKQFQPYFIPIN
Sequence of human PD-L1 on HEK293F cells (human) (Q9NZQ7 19-290): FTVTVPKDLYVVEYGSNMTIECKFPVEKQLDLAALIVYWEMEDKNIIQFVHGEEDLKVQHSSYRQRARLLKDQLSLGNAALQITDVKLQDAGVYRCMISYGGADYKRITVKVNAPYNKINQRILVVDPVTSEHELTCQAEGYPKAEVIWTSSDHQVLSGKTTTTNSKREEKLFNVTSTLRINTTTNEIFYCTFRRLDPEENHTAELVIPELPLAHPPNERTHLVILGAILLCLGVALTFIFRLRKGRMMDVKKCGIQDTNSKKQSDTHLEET
Sequence of full-length mouse CTLA4 expressed on HEK293F cells (mouse) (P09793 36-223): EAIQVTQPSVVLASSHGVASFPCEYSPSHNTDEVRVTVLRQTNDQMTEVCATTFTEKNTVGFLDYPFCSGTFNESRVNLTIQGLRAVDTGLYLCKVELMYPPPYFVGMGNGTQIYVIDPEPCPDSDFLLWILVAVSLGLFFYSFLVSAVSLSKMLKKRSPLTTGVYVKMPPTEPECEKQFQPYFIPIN
Sequence of human PD1 on HEK293F cells (human) (Q15116 25-288): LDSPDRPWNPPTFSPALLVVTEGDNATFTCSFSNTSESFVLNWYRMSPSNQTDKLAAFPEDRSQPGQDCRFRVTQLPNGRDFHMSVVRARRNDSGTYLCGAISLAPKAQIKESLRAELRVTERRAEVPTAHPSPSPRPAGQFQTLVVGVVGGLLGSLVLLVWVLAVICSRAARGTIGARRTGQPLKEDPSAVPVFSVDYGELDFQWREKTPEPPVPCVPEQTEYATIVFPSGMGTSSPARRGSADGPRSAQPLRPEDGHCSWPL
Sequence of human B7H3 on HEK293F cells (human) (Q5ZPR3 29-534): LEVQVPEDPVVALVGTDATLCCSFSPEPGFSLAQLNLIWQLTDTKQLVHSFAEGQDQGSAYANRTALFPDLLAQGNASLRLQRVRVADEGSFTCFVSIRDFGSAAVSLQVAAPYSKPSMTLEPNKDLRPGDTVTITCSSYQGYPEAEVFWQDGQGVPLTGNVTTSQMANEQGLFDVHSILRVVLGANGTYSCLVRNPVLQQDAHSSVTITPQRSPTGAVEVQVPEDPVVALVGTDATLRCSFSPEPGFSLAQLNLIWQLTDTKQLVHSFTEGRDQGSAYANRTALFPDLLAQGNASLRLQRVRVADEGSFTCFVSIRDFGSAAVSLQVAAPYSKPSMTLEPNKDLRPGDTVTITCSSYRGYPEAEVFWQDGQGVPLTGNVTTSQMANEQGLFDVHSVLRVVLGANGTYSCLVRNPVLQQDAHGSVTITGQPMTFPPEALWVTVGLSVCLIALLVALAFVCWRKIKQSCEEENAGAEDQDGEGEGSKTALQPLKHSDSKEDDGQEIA
Sequence of CTLA4 on activated mouse T cells (mouse) (P09793 36-223 limits assumed): as the sequence (P09793 36-223) above
Sequence of CTLA4 on activated monkey T cells (chain, as listed by the source limits assumed): as the sequence (P16410 36-223) above, with S14N, I18T, L106M counted along it

In the case of isotype control antibody (human IgG1), the % of cells in upper right quadrant (Q2) in assay [1] was 1.06%; in [2] it was 1.72%; in assay [5] it was 1.79%; in assay [6], 2.1%; in assay [7] it was 0.99%; in assay [8], 0.45%. For the same substance, the % of cells in upper right quadrant (Q2) in assay [9] is 0.055%; in assay [10], 0.27%; in assay [11], 0.17%; in [12], 0.23. For the same substance, the % of cells in upper right quadrant (APC-positive) in assay [3] stood at 1.98%; in assay [4], 0.034%; in assay [13], 6.27%. The Mean was 48000 in assay [8]; 3200 in assay [9]; 36300 in [10]; 3550 in [11]; 3700 in assay [12].

Source of the values: patent publication US20190241662A1.
